This data set concerns fluorogenic peptide (MCA)Lys-Lys-Pro-Ala-Glu-Phe-Phe-Ala-Leu-Lys(DNP).

native cardosin B, sequence (chain, as listed by the source): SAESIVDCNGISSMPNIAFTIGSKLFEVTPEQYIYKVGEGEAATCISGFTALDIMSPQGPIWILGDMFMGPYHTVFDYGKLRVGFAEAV

By Km is commonly meant the concentration of substrate that gives half-maximal velocity. What is called kcat is the number of substrate molecules converted per active site and unit of time at saturation. By kcat/Km is commonly meant the second-order rate constant that governs catalysis at low substrate concentration. As to native cardosin B, the Km was 1.4 µM, the VMax was 6.36e-06 µmol/s, the kcat was determined as 24 s⁻¹ and the kcat/Km was found to be 1.71e+07 M⁻¹ s⁻¹.

These data come from US20160083711.
